{"source": "the MegaScale stability set (Tsuboyama et al. 2023)", "parents": {"B1": {"name": "EHEE_rd2_1257 (parent)", "chain": "EEERTFTNEEEARKAKKEAEKRGLRVTVTKDGTTWRVRIG"}}, "data": [{"variants_of": "B1", "experiment": "folding stability dG (cDNA display proteolysis); higher = more stable", "conditions": "PBS, room temperature", "units": {"folding stability dG": "kcal/mol"}, "values": [{"variant": "T7K", "folding stability dG": 1.63}, {"variant": "T7G", "folding stability dG": 1.68}, {"variant": "T7I", "folding stability dG": 1.56}, {"variant": "T7A", "folding stability dG": 1.87}, {"variant": "T7W", "folding stability dG": 1.77}, {"variant": "T7D", "folding stability dG": 2.25}, {"variant": "T7S", "folding stability dG": 1.91}, {"variant": "N8W", "folding stability dG": 0.726}, {"variant": "N8M", "folding stability dG": 1.18}, {"variant": "N8F", "folding stability dG": 1.09}, {"variant": "N8S", "folding stability dG": 2.31}, {"variant": "N8H", "folding stability dG": 1.34}, {"variant": "N8Y", "folding stability dG": 0.987}, {"variant": "N8T", "folding stability dG": 2.35}, {"variant": "R36I", "folding stability dG": 3.03}, {"variant": "R36G", "folding stability dG": -0.199}, {"variant": "R36P", "folding stability dG": 0.209}, {"variant": "R36Y", "folding stability dG": 2.47}, {"variant": "R36M", "folding stability dG": 1.65}, {"variant": "V37F", "folding stability dG": 0.864}, {"variant": "V37D", "folding stability dG": 0.331}, {"variant": "V37I", "folding stability dG": 1.7}, {"variant": "E1T", "folding stability dG": 2.19}, {"variant": "E1P", "folding stability dG": 2.07}, {"variant": "E1L", "folding stability dG": 2.33}, {"variant": "G40L", "folding stability dG": 2.71}, {"variant": "G40Y", "folding stability dG": 3.08}, {"variant": "G40T", "folding stability dG": 2.51}, {"variant": "G40K", "folding stability dG": 2.07}, {"variant": "V26Y", "folding stability dG": 0.032}, {"variant": "V26I", "folding stability dG": 0.589}, {"variant": "V26G", "folding stability dG": 0.489}, {"variant": "T34E", "folding stability dG": 1.81}, {"variant": "T34M", "folding stability dG": 2.37}, {"variant": "T34I", "folding stability dG": 2.63}, {"variant": "T34W", "folding stability dG": 2.08}, {"variant": "E20Y", "folding stability dG": 1.03}, {"variant": "E20R", "folding stability dG": 1.11}, {"variant": "E20G", "folding stability dG": 0.5}, {"variant": "K14S", "folding stability dG": 1.89}, {"variant": "K14W", "folding stability dG": 1.94}, {"variant": "K14T", "folding stability dG": 1.93}, {"variant": "K14E", "folding stability dG": 2.19}, {"variant": "K14Q", "folding stability dG": 2.18}, {"variant": "K14A", "folding stability dG": 2.31}, {"variant": "T27Q", "folding stability dG": 1.49}, {"variant": "T27I", "folding stability dG": 1.95}, {"variant": "T27R", "folding stability dG": 1.62}, {"variant": "E11F", "folding stability dG": 0.906}, {"variant": "E11G", "folding stability dG": 1.34}, {"variant": "R38I", "folding stability dG": 2.59}, {"variant": "I39A", "folding stability dG": 0.675}, {"variant": "I39V", "folding stability dG": 1.64}, {"variant": "I39Y", "folding stability dG": 1.66}, {"variant": "T5L", "folding stability dG": 2.11}, {"variant": "T5P", "folding stability dG": 0.253}, {"variant": "T5N", "folding stability dG": 1.29}, {"variant": "T5R", "folding stability dG": 1.52}, {"variant": "T5A", "folding stability dG": 1.49}, {"variant": "T5D", "folding stability dG": 1.13}, {"variant": "T5S", "folding stability dG": 1.69}, {"variant": "E9D", "folding stability dG": 0.502}, {"variant": "E9N", "folding stability dG": 0.702}, {"variant": "E9V", "folding stability dG": 1.72}, {"variant": "E9T", "folding stability dG": 0.236}, {"variant": "E9A", "folding stability dG": 1.76}, {"variant": "E9P", "folding stability dG": 1.47}, {"variant": "E18H", "folding stability dG": 1.43}, {"variant": "E18R", "folding stability dG": 1.22}, {"variant": "E18M", "folding stability dG": 1.72}, {"variant": "E18Q", "folding stability dG": 1.64}, {"variant": "E18K", "folding stability dG": 1.11}, {"variant": "R25K", "folding stability dG": 2.06}, {"variant": "R25F", "folding stability dG": 2.07}, {"variant": "R25S", "folding stability dG": 1.88}, {"variant": "R25W", "folding stability dG": 1.98}, {"variant": "R25G", "folding stability dG": 0.797}, {"variant": "R25L", "folding stability dG": 1.87}, {"variant": "R4G", "folding stability dG": 1.14}, {"variant": "R4K", "folding stability dG": 1.97}, {"variant": "R4V", "folding stability dG": 1.96}, {"variant": "R4Q", "folding stability dG": 2}, {"variant": "R13M", "folding stability dG": 3.15}, {"variant": "R13D", "folding stability dG": 1.98}, {"variant": "R13L", "folding stability dG": 2.96}, {"variant": "R13T", "folding stability dG": 2.12}, {"variant": "G23R", "folding stability dG": 0.397}, {"variant": "G23N", "folding stability dG": 0.986}, {"variant": "G23H", "folding stability dG": 0.993}, {"variant": "G23E", "folding stability dG": -0.609}, {"variant": "G23Q", "folding stability dG": 0.383}, {"variant": "E2L", "folding stability dG": 2.26}, {"variant": "E2M", "folding stability dG": 2.16}, {"variant": "E2V", "folding stability dG": 2.3}, {"variant": "E2Q", "folding stability dG": 1.99}, {"variant": "E2D", "folding stability dG": 1.75}, {"variant": "E2F", "folding stability dG": 2.6}, {"variant": "E2A", "folding stability dG": 1.75}, {"variant": "K21F", "folding stability dG": 1.89}, {"variant": "G32F", "folding stability dG": 0.011}, {"variant": "G32A", "folding stability dG": 0.985}, {"variant": "G32Y", "folding stability dG": 0.01}, {"variant": "W35Y", "folding stability dG": 1.35}, {"variant": "W35M", "folding stability dG": 0.332}, {"variant": "W35V", "folding stability dG": 0.55}, {"variant": "D31L", "folding stability dG": 1.74}, {"variant": "D31T", "folding stability dG": 1.76}, {"variant": "D31M", "folding stability dG": 1.74}, {"variant": "D31K", "folding stability dG": 1.34}, {"variant": "D31Q", "folding stability dG": 1.7}, {"variant": "D31F", "folding stability dG": 1.69}, {"variant": "D31E", "folding stability dG": 2.15}, {"variant": "D31S", "folding stability dG": 1.72}, {"variant": "E10I", "folding stability dG": 1.98}, {"variant": "E10Q", "folding stability dG": 2.03}, {"variant": "E10K", "folding stability dG": 2.07}, {"variant": "K16F", "folding stability dG": 2.35}, {"variant": "K16R", "folding stability dG": 1.75}, {"variant": "K16I", "folding stability dG": 2.99}, {"variant": "K17W", "folding stability dG": 2.39}, {"variant": "K17A", "folding stability dG": 2.47}, {"variant": "K17L", "folding stability dG": 2.45}, {"variant": "T29D", "folding stability dG": 1.2}, {"variant": "T29S", "folding stability dG": 1.62}, {"variant": "E3W", "folding stability dG": 2.3}, {"variant": "E3V", "folding stability dG": 2.33}, {"variant": "E3L", "folding stability dG": 2}, {"variant": "E3K", "folding stability dG": 0.758}, {"variant": "T33R", "folding stability dG": 1.57}, {"variant": "T33P", "folding stability dG": 2.58}, {"variant": "T33I", "folding stability dG": 1.89}, {"variant": "T33G", "folding stability dG": 2.28}, {"variant": "T33K", "folding stability dG": 2.05}, {"variant": "T33D", "folding stability dG": 3.11}, {"variant": "A12S", "folding stability dG": 0.218}, {"variant": "A12I", "folding stability dG": -0.149}, {"variant": "A12T", "folding stability dG": 0.316}, {"variant": "A12F", "folding stability dG": 1.54}, {"variant": "A12C", "folding stability dG": 2}, {"variant": "K30R", "folding stability dG": 2.04}, {"variant": "K30N", "folding stability dG": 1.9}, {"variant": "K30M", "folding stability dG": 1.75}, {"variant": "K30W", "folding stability dG": 3.02}, {"variant": "K30G", "folding stability dG": 1.32}, {"variant": "L24S", "folding stability dG": 0.594}, {"variant": "L24K", "folding stability dG": 1.18}, {"variant": "L24V", "folding stability dG": 1.21}, {"variant": "A15H", "folding stability dG": 1.67}, {"variant": "A15V", "folding stability dG": 1.72}, {"variant": "A15E", "folding stability dG": 1.11}, {"variant": "A15F", "folding stability dG": 3.5}, {"variant": "A15S", "folding stability dG": 0.987}, {"variant": "A15D", "folding stability dG": 0.155}, {"variant": "A19Q", "folding stability dG": 0.398}, {"variant": "A19Y", "folding stability dG": 2.37}, {"variant": "A19W", "folding stability dG": 2.02}, {"variant": "A19L", "folding stability dG": 2.46}, {"variant": "A19D", "folding stability dG": -0.295}, {"variant": "R22M", "folding stability dG": 2.18}, {"variant": "R22W", "folding stability dG": 1.72}, {"variant": "R22S", "folding stability dG": 1.44}, {"variant": "R22T", "folding stability dG": 1.06}, {"variant": "R22N", "folding stability dG": 1.72}, {"variant": "F6M", "folding stability dG": 0.184}, {"variant": "V28L", "folding stability dG": 2.58}, {"variant": "V28I", "folding stability dG": 2.71}, {"variant": "V28T", "folding stability dG": 0.613}]}]}
